Experimental data as given in US20230045015A1, “Use of Cobra neurotoxin polypeptide molecule in the treatment of nephropathy proteinuria” (priority 2019, published 2023).

Columns and labels:
[1] = system: streptozotocin (STZ)-induced rat nephritis proteinuria; assay: Streptozotocin (STZ)-induced nephritis proteinuria in rats; type: in vivo; conditions: urine, ELISA, streptozotocin (STZ) 55 mg/kg, 20 ug/kg by gavage once a day for 8 weeks
[2] = system: adriamycin induced rat nephritis proteinuria; assay: Adriamycin induced nephritis proteinuria in rats (unilateral nephrectomy + adriamycin); type: in vivo; conditions: urine, ELISA, adriamycin 3 + 2 mg/kg, 20 ug/kg by gavage once a day for 8 weeks
Text: 1. Experimental Animals and Groups
80 male SD rats weighing 160-180 g were randomly divided into 2 groups: 20 in the control group and 60 in the model group. 40 rats in model group, after success in modeling, were randomly divided into cobra neurotoxin polypeptide treatment group and model group.
Each group of the three, namely control group, treatment group and model group were randomly divided into two groups again, with 10 rats in each group to test cobra neurotoxin peptide SEQ ID No. 1 and SEQ ID No. 2, the remaining rats were out of the groups.
Glomerulosclerotic rats were established by unilateral nephrectomy combined with tail vein injection of adriamycin twice every 2 weeks. Model. […] The control group was injected into caudal vein on the 4th and 18th day respectively with normal saline 0.5 ml.
During the 8 weeks of observation, the treatment group was given cobra neurotoxin polypeptide·20 ug/kg by gavage once a day, continuously for 8 weeks; the model group and the control group were perfused with normal saline once a day for 8 weeks.
3. Collection and Detection of Urinary Protein
After the last treatment, the rats were placed in the metabolic cage to collect 10 ml of urine, centrifuged at 3500 r/min for 10 min, the supernatant was extracted into the cryopreservation tube, stored in the refrigerator at −80° C. for standby, and the urinary A1 microglobulin was detected by enzyme-linked immunosorbent assay, β2-microglobulin, microalbumin, transferrin and immunoglobulin G (IgG), operate according to the instructions of ELISA kit.
Anesthetized rats were injected intraperitoneally with 1.5% Pentobarbital Sodium (50 mg/kg). After the corneal reflex disappeared, the abdominal cavity was opened and the abdominal aorta was exposed. The abdominal aorta collected 10 ml of whole blood and placed in a centrifuge tube. After standing for 2 h, centrifuged at 3500 r/min for 10 min. The supernatant was extracted in a cryopreservation tube and stored in a refrigerator at −80° C. for standby. The serum creatinine, urea nitrogen, cholesterol and triglyceride were detected by a full-automatic biochemical analyzer.

[3] = biological target: T1, nicotinic acetylcholine receptor (nAChR) (Rattus norvegicus, UniProt P25108+P25110); assay: 125I-αBtx-nAChR binding inhibition (affinity test of snake venom protein peaks); conditions: rat skeletal muscle nAChR extract; αBTX = 100%, BSA = 0%
T1 construct: rat skeletal muscle nAChR extract; from tissue; host or cells: rat skeletal muscle (extract)
T1 sequence (P25108 21-457): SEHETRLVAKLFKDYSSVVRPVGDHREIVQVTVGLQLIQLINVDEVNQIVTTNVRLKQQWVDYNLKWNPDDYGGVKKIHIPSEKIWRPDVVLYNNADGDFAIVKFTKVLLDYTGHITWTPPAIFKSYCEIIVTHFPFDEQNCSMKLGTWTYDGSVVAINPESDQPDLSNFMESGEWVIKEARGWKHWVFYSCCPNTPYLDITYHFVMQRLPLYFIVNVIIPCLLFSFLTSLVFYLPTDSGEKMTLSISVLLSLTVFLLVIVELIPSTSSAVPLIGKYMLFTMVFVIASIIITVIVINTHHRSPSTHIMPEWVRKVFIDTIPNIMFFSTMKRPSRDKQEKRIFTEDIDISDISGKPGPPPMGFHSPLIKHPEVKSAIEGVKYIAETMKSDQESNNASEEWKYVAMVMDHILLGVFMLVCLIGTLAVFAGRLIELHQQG
T1 sequence (P25109 24-501 partner): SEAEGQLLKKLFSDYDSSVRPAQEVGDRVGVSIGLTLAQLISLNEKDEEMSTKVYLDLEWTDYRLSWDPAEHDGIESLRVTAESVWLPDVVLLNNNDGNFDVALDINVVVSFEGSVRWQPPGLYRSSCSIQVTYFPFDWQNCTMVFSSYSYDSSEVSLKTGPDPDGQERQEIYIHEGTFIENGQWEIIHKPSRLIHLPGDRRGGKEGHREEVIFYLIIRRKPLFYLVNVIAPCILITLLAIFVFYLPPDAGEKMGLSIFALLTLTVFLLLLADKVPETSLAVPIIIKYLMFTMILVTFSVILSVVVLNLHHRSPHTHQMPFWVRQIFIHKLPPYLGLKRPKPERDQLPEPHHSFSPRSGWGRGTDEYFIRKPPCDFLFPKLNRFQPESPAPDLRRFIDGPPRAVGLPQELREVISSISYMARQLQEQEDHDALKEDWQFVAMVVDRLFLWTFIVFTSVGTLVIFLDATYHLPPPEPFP
T1 sequence (P25110 22-517): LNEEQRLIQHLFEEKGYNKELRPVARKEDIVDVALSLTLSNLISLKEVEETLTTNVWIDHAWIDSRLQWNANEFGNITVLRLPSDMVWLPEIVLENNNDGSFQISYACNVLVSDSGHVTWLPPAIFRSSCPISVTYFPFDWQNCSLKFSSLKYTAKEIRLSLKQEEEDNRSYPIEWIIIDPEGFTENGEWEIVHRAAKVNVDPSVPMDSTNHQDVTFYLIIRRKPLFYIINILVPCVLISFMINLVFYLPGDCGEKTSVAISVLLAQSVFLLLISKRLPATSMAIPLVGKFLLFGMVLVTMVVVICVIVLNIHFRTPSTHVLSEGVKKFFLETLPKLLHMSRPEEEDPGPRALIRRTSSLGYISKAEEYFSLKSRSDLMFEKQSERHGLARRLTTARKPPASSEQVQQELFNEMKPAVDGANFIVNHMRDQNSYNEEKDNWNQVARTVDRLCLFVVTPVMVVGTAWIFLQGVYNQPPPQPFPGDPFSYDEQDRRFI
Text: The method was based on the affinity test between 12 protein peaks and nicotinic acetylcholine receptor (nAChR).
The Principle of Affinity Test
Because α-bungarotoxin has high affinity with the nicotinic acetylcholine receptor (nAChR), the cobra neurotoxin can compete with α-bungarotoxin for binding with nicotinic acetylcholine receptor, and only these α-bungarotoxin labeled with the radionuclide 125I and bound with the nicotinic acetylcholine receptor will be precipitated and be counted by the Gamma immunocount instrument whilst unbound α-bungarotoxin will be washed out. Therefore, 12 isolated proteins binding inhibition rate of α-bungarotoxin with nicotinic acetylcholine receptor (nAChR) could be used to measure the affinity between the isolated proteins and nicotinic acetylcholine receptor (nAChR), that's each isolated protein's bioactivity, which could be further determined by the γ counting value per second (Bq) measured by immune counter, and it becomes the index of proteins bioactivity.
The way of implementation include the method of binding inhibition rate of 125I radioactive labeling-α-bungarotoxin with nicotinic acetylcholine receptor (%) which reflects the activity of each protein.
The method for identifying cobra neurotoxin with high affinity with nicotinic acetylcholine receptor (nAChR) includes the following steps: […]

Molecule | IgG ([1]; Table 4) [µg/mL] | TRF ([1]; Table 4) [µg/mL] | UALB ([1]; Table 4) [µg/mL] | a1-MG ([1]; Table 4) [µg/mL] | IgG ([2]; Table 2) [µg/mL] | TRF ([2]; Table 2) [µg/mL] | UALB ([2]; Table 2) [µg/mL] | a1-MG ([2]; Table 2) [µg/mL] | IgG ([1]; Table 3) [µg/mL] | TRF ([1]; Table 3) [µg/mL] | UALB ([1]; Table 3) [µg/mL] | a1-MG ([1]; Table 3) [µg/mL] | β2-MG ([1]; Table 3) [ng/mL] | IgG ([2]; Table 1) [µg/mL] | TRF ([2]; Table 1) [µg/mL] | UALB ([2]; Table 1) [µg/mL] | a1-MG ([2]; Table 1) [µg/mL] | β2-MG ([2]; Table 1) [ng/mL] | 125I-αBtx-nAChR binding inhibitory rate [3]
SEQ ID No. 2 (protein, listed as Naja atra) MKTLLLTLLVVTIVCLDLGYTLECHNQQSSQTPTTTGCSGGETNCYKKRWRDHRGYRTERGCGCPSVKNGIEINCCTTDRCNN | 0.31 ± 0.09 | 0.18 ± 0.06 | 0.89 ± 0.26 | 0.96 ± 0.19 | 0.31 ± 0.15 | 0.11 ± 0.032 | 0.82 ± 0.21 | 0.74 ± 0.14 |  |  |  |  |  |  |  |  |  |  | 
SEQ ID No. 1 (protein, listed as Naja atra) LECHNQQSSQTPTTTGCSGGETNCYKKRWRDHRGYRTERGCGCPSVKNGIEINCCTTDRCNN |  |  |  |  |  |  |  |  | 0.35 ± 0.11 | 0.17 ± 0.05 | 1.21 ± 0.14 | 1.02 ± 0.21 | 38.90 ± 11.82 | 0.34 ± 0.08 | 0.17 ± 0.08 | 0.89 ± 0.11 | 0.52 ± 0.8 | 29.29 ± 6.93 | about 50%
